Columns and labels:
[1] = Loading experiments: encapsulation efficiency during PPSU20 self-assembly (fluorescence of supernatant); format: physicochemical
Protocol: Loading experiments. For the loading of Nile red, nanogels were prepared using pure water and Nile red-containing (0.1 mg/mL) DMSO solutions of PPSU20. For the loading of water-soluble drugs, aqueous solutions of FITC (0.05 mg/mL), doxorubicin hydrochloride (1 mg/mL), dextran (1 mg/mL), albumin (various concentrations), GFP (0.2 mg/mL), RNA (0.2 mg/mL), DNA (0.2 mg/mL), and DMSO solutions of PPSU20 (25 mg/mL) were used. Typically, 100 μL of the corresponding aqueous solution were mixed stepwise (10 μL/step or 100 μL/step) with 50 μL of PPSU20 solution under vortex, then another 400 μL of water was added. After centrifugation at 16000×g for 10 min, fluorescence of the supernatant was measured and the encapsulation efficiencies were calculated.

[2] = PPSU nanogel biodistribution and toxicity after subcutaneous injection; format: in vivo; settings: mice, s.c. injection, 48 h, NIRF/IVIS
Protocol: Assessment of PPSU NBM biodistribution and toxicity: Preliminary assessment of vesicular PPSU nanogel biodistribution 48 h after subcutaneous (s.c.) injection (relevant for vaccination) was performed using near infrared fluorescence (NIRF) agent cardiogreen (ICG) as previously published by the Scott lab^1.

[3] = Solubility tests using PPSU20 crystals in water and common organic solvents; format: physicochemical; settings: in words
Text: PPSU can be synthesized from complete oxidation of poly(propylene sulfide) (PPS) (14, 15), which is known for its hydrophobic—hydrophilic transition upon oxidation (16-18). However, complete oxidation of PPS had not been previously achieved, since standard oxidation of PPS generates random copolymers of poly(propylene sulfoxide)-co-poly(propylene sulfone) (19). We successfully synthesized PPSU20 (20 sulfones, FIG. 5) using an atypically high concentration of H2O2. Highly concentrated H2O2 was generated in situ upon vacuum evaporation during the oxidizing reaction. […] Given that the chemical structure of PPSU (FIG. 1a) is characterized by a positively charged backbone with negatively charged pendent oxygen atoms (20), electrostatic repulsion among oxygen atoms (21) was expected to result in weak inter- and intra-chain associations.

[4] = PPSU20 vesicular nanogels formed with a concentration series of FITC-BSA (DLS, zeta potential, encapsulation); format: physicochemical
trypsin protease = target: T1, trypsin protease (Sus scrofa, UniProt P00761); experiment: Trypsin digestion of FITC-BSA-loaded PPSU20 vesicular nanogels; format: biochemical; settings: overloaded 10 mg/mL sample; trypsin 2 μg/mL, 24 h, 37° C.
T1 construct: purchased Promega
T1 sequence (P00761 9-231): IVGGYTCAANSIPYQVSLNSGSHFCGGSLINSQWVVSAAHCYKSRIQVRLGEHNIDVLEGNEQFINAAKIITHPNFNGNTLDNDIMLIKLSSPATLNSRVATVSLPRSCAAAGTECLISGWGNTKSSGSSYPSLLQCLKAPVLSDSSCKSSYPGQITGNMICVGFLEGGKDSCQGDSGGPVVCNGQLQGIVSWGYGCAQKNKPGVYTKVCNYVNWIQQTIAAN
Protocol: Trypsin digestion of FITC-BSA-loaded PPSU20 vesicular nanogels. DMSO solutions of PPSU20 (200 μL, 25 mg/mL) were hydrated using 800 μL of aqueous FITC-BSA solutions (0, 0.1, 1.0, 10.0 mg/mL). DMSO was removed by dialysis after self-assembly. Negatively stained FITC-BSA-loaded PPSU20 vesicular nanogels were characterized by TEM. After removal of unloaded FITC-BSA by three rounds of centrifugation and resuspension in phosphate-buffered saline, FITC-BSA-loaded PPSU20 vesicular nanogels were subjected to digestion with trypsin protease (2 μg/mL; Trypsin Gold, Promega) for 24 h at 37° C., 80 rpm. Undigested FITC-BSA-loaded PPSU20 vesicular nanogels (i.e. no protease treatment) were included as a control. After 24 h incubation with trypsin, FITC fluorescence (Ex=490 nm, Em=525 nm) was quantified in triplicate using a SpectraMax M3 microplate reader (Molecular Devices). The percentage increase in FITC fluorescence (i.e., 100×(F(+)−F(−))/F(−)) after proteolysis was calculated, where F(+) is the fluorescence after protease treatment and F(−) is referred to the fluorescence in the absence of protease treatment.

[5] = Adsorption of FITC-BSA by preformed PPSU20 vesicular nanogels; format: physicochemical; settings: fluorescence in 0.2 N NaOH
Protocol: PPSU20 vesicular nanogels were prepared by mixing 100 μL of water or 100 μL of aqueous FITC-BSA (1.0 mg/mL) solution with 100 μL of PPSU20 solution (25 mg/mL in DMSO) under vortex, followed by the addition of 1000 μL of water. Nanogels were collected by centrifugation and purified by 2 rounds of resuspension and centrifugation in 1000 μL of water. The preformed blank vesicular nanogels were further incubated with 100 μL of aqueous FITC-BSA (1.0 mg/mL) solution overnight, giving FITC-BSA-adsorbed nanogels after removal of free FITC-BSA by three rounds of centrifugation and resuspension in water. Blank nanogels, FITC-BSA-loaded nanogels, and FITC-BSA-adsorbed nanogels were resuspened in 1000 μL of water for fluorescence measurements or as the stocking solutions for fluorescence quantitative analysis in sodium hydroxide solution (0.2 N).

[6] = 10 μL/step, mass ratio (drug/PPSU20) 0.08
[7] = 100 μL/step, mass ratio (drug/PPSU20) 0.08
[8] = 10 μL/step, mass ratio (drug/PPSU20) 0.004
[9] = 100 μL/step, mass ratio (drug/PPSU20) 0.004

Question: Which Encapsulation efficiency [1, 6] does the source give for `COc1cccc2c1C(=O)c1c(O)c3c(c(O)c1C2=O)C[C@@](O)(C(=O)CO)C[C@@H]3O[C@H]1C[C@H](N)[C@H](O)[C@H](C)O1.Cl` [DOX/HCl, doxorubicin hydrochloride] here?
Answer: Its Encapsulation efficiency is greater than 96%.

Question: What about the Encapsulation efficiency [1, 7] of the same molecule?
Answer: Its Encapsulation efficiency is greater than 97%.

Question: For `CC1(C)C(/C=C/C=C/C=C/C=C2\N(CCCCS(=O)(=O)[O-])c3ccc4ccccc4c3C2(C)C)=[N+](CCCCS(=O)(=O)[O-])c2ccc3ccccc3c21.[Na+]` [ICG], which “biodistribution (organs)” value [2] is on record?
Answer: The value was “heart, brain and kidneys”.

Question: Which results are given for `CCN(CC)c1ccc2nc3c4ccccc4c(=O)cc-3oc2c1` [Nile red]?
Answer: Encapsulation efficiency [1, 8]: >96%; Encapsulation efficiency [1, 9]: >98%

Question: With `CS(C)(=O)=O` [dimethylsulfone] as the molecule, how does the Solubility in water [3] read?
Answer: Its Solubility in water is “good water-solubility”.

Question: For “Albumin: FITC-labeled albumin (FITC-BSA), a model protein; Table 1 entries 5 to 8”, which “protein by mass in nanogels” value ([4]; 10 mg/mL of protein, 3.6 mg FITC-BSA/5 mg PPSU) is on record?
Answer: Its value is 72%.

Question: What about the EE ([4]; in the presence of 10 mg/mL of protein) of the same molecule?
Answer: Its EE is 45%.

Question: What about the EE ([4]; loading of FITC-BSA at 0.1 mg/mL) of the same molecule?
Answer: The EE was “approximately 100%”.

Question: And the EE ([4]; loading of FITC-BSA at 1.0 mg/mL)?
Answer: Its EE is “approximately 100%”.

Question: What about the “encapsulated FITC-BSA accessible to cleavage” value (trypsin protease) of the same molecule?
Answer: Its value is 30-35%.

Question: And the Encapsulation efficiency ([5]; FITC-BSA-loaded vesicles, Em=518 nm)?
Answer: The Encapsulation efficiency was 97.8%.

Question: What about the adsorption efficiency ([5]; preformed blank vesicles incubated with FITC-BSA overnight) of the same molecule?
Answer: The adsorption efficiency was 6.0%.

Question: And the Encapsulation efficiency [1, 6]?
Answer: Its Encapsulation efficiency is greater than 99%.

Question: And the Encapsulation efficiency ([1]; 10 μL/step, mass ratio (drug/PPSU20) 0.4)?
Answer: Its Encapsulation efficiency is greater than 99%.

Question: What about the Encapsulation efficiency ([1]; 10 μL/step, mass ratio (drug/PPSU20) 0.8) of the same molecule?
Answer: The Encapsulation efficiency was greater than 96%.

Question: And the Encapsulation efficiency ([1]; 10 μL/step, mass ratio (drug/PPSU20) 1.2)?
Answer: Its Encapsulation efficiency is 83%.

Question: What about the Encapsulation efficiency [1, 7] of the same molecule?
Answer: Its Encapsulation efficiency is greater than 99%.

Question: What about the Encapsulation efficiency ([1]; 100 μL/step, mass ratio (drug/PPSU20) 0.4) of the same molecule?
Answer: Its Encapsulation efficiency is greater than 99%.

Question: What about the Encapsulation efficiency ([1]; 100 μL/step, mass ratio (drug/PPSU20) 0.8) of the same molecule?
Answer: The Encapsulation efficiency was greater than 96%.

Question: What about the Encapsulation efficiency ([1]; 100 μL/step, mass ratio (drug/PPSU20) 1.2) of the same molecule?
Answer: Its Encapsulation efficiency is 80%.

Question: What about the “encapsulation capacity (w/w)” value ([1]; Table 1, entry 5 to 7) of the same molecule?
Answer: The value was “up to 80%”.

Question: What about the “encapsulation of protein molecules from aqueous solutions” value ([1]; Table 1, entry 5 to 7) of the same molecule?
Answer: The value was roughly 100%.

Question: What about the EE ([1]; nanoparticles contained 20% more protein than polymer by mass (Table 1, entry 8)) of the same molecule?
Answer: Its EE is “Over 80%”.

Question: For Dextran, which Encapsulation efficiency [1, 6] is on record?
Answer: The Encapsulation efficiency was greater than 96%.

Question: And the Encapsulation efficiency [1, 7]?
Answer: Its Encapsulation efficiency is greater than 96%.

Question: Which Encapsulation efficiency [1, 8] does the source give for fluorescein isothiocyanate [FITC] here?
Answer: The Encapsulation efficiency was greater than 99%.

Question: What about the Encapsulation efficiency [1, 9] of the same molecule?
Answer: The Encapsulation efficiency was greater than 99%.
